Patent publication US20040043949A1

Columns and labels:
[1] = target: modified BID with an HCV NS3 cleavage site (human) (UniProt P55957); experiment: cell-based or functional assay
[2] = target: Mod.Caspase 3/172(NS5A/B) (human) (UniProt P42574); experiment: cell-based or functional assay

Substance | cell death, FACS analysis of living EGFP positive CHOP cells, (+) NS3 Protease [1] [% cell death] | cell death, FACS analysis of living EGFP positive CHOP cells, (+) NS3 Protease [2] [% cell death] | AnnexinV positive H9C2 cells, FACS, 24 hours (% more cells than control) [1] | AnnexinV positive H9C2 cells, FACS, 24 hours, no VAD-fmk [1] [%]
HCV NS3/NS4A protease (from UniProt P27958 1027-1657; P27958 1658-1711) (enzyme) | > 30 | > 30 |  | 
single-chain HCV protease (NS4A-NS3) (from UniProt P27958 1678-1689; P27958 1029-1207) (enzyme) |  |  | 50 | 60
